Laboratory results reported in patent US20110243944A1 (SHANGHAI KEXIN BIOTECH, published 2011).

Target: T1, RANK (Receptor Activator for Nuclear Factor κB) (UniProt Q9Y6Q6 30-616, limits assumed)
T1 construct: whole, on cells; Endogenous receptor on THP1 monocytes; also called RANKL receptor
T1 sequence (looked up): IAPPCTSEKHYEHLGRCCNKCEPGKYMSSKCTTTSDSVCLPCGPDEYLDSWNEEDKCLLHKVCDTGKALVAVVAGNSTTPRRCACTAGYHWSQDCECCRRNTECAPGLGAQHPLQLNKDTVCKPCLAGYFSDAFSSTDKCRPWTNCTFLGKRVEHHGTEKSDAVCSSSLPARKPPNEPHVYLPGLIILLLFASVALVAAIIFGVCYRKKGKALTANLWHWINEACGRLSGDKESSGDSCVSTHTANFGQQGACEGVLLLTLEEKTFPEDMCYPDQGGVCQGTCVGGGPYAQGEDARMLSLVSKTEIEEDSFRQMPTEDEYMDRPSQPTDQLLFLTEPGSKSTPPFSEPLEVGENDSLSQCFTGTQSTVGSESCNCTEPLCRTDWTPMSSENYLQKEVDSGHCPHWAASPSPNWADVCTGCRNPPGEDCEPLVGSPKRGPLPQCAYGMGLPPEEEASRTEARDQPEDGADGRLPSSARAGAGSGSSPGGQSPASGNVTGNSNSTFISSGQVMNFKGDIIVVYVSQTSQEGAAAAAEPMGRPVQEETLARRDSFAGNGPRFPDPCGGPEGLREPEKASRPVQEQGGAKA
Experiment: flow cytometry; 5 µg RIG on 1*10^6 THP1 monocytes, detected with FITC labeled anti human RANKL antibody
Experimental: 1*10⁶ THP1 monocytes were grown in MCSF and RANKL medium for 72 hours and mixed with 5 μg purified RIG protein from Implementation 1 for additional 1 hour at 4° C. 5 μl FITC labeled anti human RANKL antibody (CALTAG, CA) was then added into the mixture and flow cytometry was used to examine FITC positive cells. […] In FIG. 4, SSC-H presents the pellet number in cytoplasm, FSC-H presents the cell size, FL2-H presents PE and FL1-H presents FITC.

B1: fusion protein RIG (Fc fusion)
chain: MRRASRDYTKYLRGSEEMGGGPGAPHEGPLHAPPPPAPHQPPAASRSMFVALLGLGLGQVVCSVALFFYFRAQMDPNRISEDGTHCIYRILRLHENADFQDTTLESQDTKLIPDSCRRIKQAFQGAVQKELQHIVGSQHIRAEKAMVDGSWLDLAKRSKLEAQPFAHLTINATDIPSGSHKVSLSSWYHDRGWAKISNMTFSNGKLIVNQDGFYYLYANICFRHHETSGDLATEYLQLMVYVTKTSIKIPSSHTLMKGGSTKYWSGNSEFHFYSINVGGFFKLRSGEEISIEVSNPSLLDPDQDATYFGAFKVRDIDGSEPKSCDKTHTCPPCPAPELLGGPSVFLFPPKPKDTLMISATPEVTCVVVDVSHEDPEVKFMWYVDGVEVHNAKTKPAEEQYNSTYAVVSVLTVLHQDWLNGKEYKCKVSNKALPAPIEKTISKAKGQPAEPQVYTLPPSRDELTYNQVSLTCLVKGFYPSDIAVEWESNGQPENNYKTTPPVLDSDGSFFLYSKLTVDKSRWQQGNVFSCSVMHEALHNHYTQKSLSLSPGK
notes: also called RANKL-Fcγ fusion protein; RIG protein
  binding result: binds
